Legend:
[1] = system: human lung cancer EBC-1 cells; test: Endocytosis by c-Met-positive cells (flow cytometry); type: cell-based; details: 20 nM
Experimental: Teli-VcMMAE (namely ABBV-399, in which the toxin is MMAE) and its naked antibody ABT-700 were prepared in-house based on the telisotuzumab vedotin structure disclosed on page 319 of WHO Drug Information, Vol. 30, No. 2, 2016.
The cell density was adjusted to 2 × 10^6 cells/mL using a FACS buffer (prepared with PBS 1×, pH 7.2, and 2% FBS). The suspension was added to a 96-well round-bottom plate at 50 µL/well. Groups were set as follows: endocytosis for 0 h, endocytosis for 0.5 h, endocytosis for 2 h, endocytosis for 4 h, and endocytosis for 24 h. A 40 nM (2×) dilution of an antibody or antibody-drug conjugate was added at 50 µL/well. […] A final concentration of 20 nM was achieved. The plate was incubated at 4 °C for 60 min. After the incubation, the plate was centrifuged at 400 g for 5 min, the supernatant was discarded, and the plate was washed twice with 200 µL of FACS Buffer per well. The cells were resuspended in a culture medium and subjected to 0 h, 0.5 h, 2 h, 4 h, or 24 h of endocytosis in an incubator (37 °C, 5% CO2). After different endocytosis periods, the cells were digested with TrypLE™ Express Enzyme to form a single cell suspension. After 1 wash with 200 µL of FACS buffer, a secondary antibody (Alexa Fluor® 647 AffiniPure Mouse Anti-Human IgG(H+L), 1:500, Jackson, 209-605-008) diluted in FACS buffer was added, and the plate was incubated in a dark place at 4 °C for 30 min. The plate was centrifuged at 400 g for 5 min, the supernatant was discarded, and the plate was washed twice with 200 µL of FACS buffer per well. The cells were resuspended in 50 µL of FACS buffer, and 50 µL of 4% paraformaldehyde was then added for fixation. After thorough mixing, the plate was left to stand at 4 °C in a dark place. After all samples were collected, Alexa Fluor® 647 fluorescence signals were detected using a flow cytometer. Data were analyzed using Flowjo software, and gMFI values were calculated. Endocytosis ratio = (0-h endocytosis gMFI - n-h endocytosis gMFI)/0-h endocytosis gMFI. Table 4. Evaluation of endocytosis performance

[2] = system: human gastric cancer MKN-45 nude mouse subcutaneous xenograft tumor model; test: In vivo efficacy, MKN-45 xenograft tumor model; set-up: species or system Balb/c Nude mice; details: 3 mg/kg single i.p. (D0)
Experimental: Female Balb/c Nude mice were subcutaneously inoculated with 5 × 10^6 MKN-45 cells to establish a subcutaneous tumor model. […] Each group was given a single (D0) intraperitoneal injection. The body weight and tumor size of the animals were measured twice weekly during the experiment.

B1: Teli-VcMMAE: ABBV-399, in which the toxin is MMAE; prepared in-house based on the telisotuzumab vedotin structure (conjugate, chains of the INN, looked up)
VH: QVQLVQSGAEVKKPGASVKVSCKASGYIFTAYTMHWVRQAPGQGLEWMGWIKPNNGLANYAQKFQGRVTMTRDTSISTAYMELSRLRSDDTAVYYCARSEITTEFDYWGQGTLVTVSS
VL: DIVMTQSPDSLAVSLGERATINCKSSESVDSYANSFLHWYQQKPGQPPKLLIYRASTRESGVPDRFSGSGSGTDFTLTISSLQAEDVAVYYCQQSKEDPLTFGGGTKVEIK
modifications: vc-MMAE payload
notes: ABBV-399, in which the toxin is MMAE; prepared in-house based on the telisotuzumab vedotin structure
Molecule B1 has an Endocytosis ratio% ([1]; 0 h) of 0.000%, an Endocytosis ratio% ([1]; 0.5 h) of 4.361% and an Endocytosis ratio% ([1]; 2 h) of 31.734%. For the same molecule, the Endocytosis ratio% ([1]; 24 h) was 97.339%, the “Mean tumor volume (mm^3, mean ± SEM) D0” value ([2]; D0 (baseline at grouping)) was 117± 3 mm^3 and the “Mean tumor volume (mm^3, mean ± SEM) D23” value ([2]; D23) was 1354 ± 327 mm^3. For the same molecule, the “TGI (%) D23” value ([2]; D23) was 40.28%.
